The chains are these.
T1: FcγRIIa(R) extracellular domain, C-terminal His tag (human, UniProt P12318 34-217)
T1 construct: extracellular domain; also called 2aR
T1 sequence: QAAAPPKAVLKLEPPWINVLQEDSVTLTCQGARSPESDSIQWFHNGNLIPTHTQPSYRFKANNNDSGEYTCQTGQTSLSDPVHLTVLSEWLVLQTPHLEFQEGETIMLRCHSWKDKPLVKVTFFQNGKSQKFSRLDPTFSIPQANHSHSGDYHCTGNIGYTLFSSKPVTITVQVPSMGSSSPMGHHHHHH

T2: FcγRIIa(H) extracellular domain, C-terminal His tag (human, UniProt P12318 34-217)
T2 construct: extracellular domain; also called 2aH
T2 sequence: T1 sequence with R134H

T3: FcγRIIb extracellular domain, C-terminal His tag (human, UniProt P31994 43-217)
T3 construct: extracellular domain; also called 2b
T3 sequence: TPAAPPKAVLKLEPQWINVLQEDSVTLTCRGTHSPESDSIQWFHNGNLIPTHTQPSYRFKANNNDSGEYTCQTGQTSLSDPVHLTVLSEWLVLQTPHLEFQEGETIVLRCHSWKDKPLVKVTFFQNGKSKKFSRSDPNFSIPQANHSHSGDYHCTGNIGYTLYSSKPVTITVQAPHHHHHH

T4: FcγRIIa(R) (human, UniProt P12318 34-217)
T4 construct: extracellular domain; also called FcγRIIa R type; 2aR
T4 sequence: T1 sequence

T5: FcγRIIa(H) (human, UniProt P12318 34-217)
T5 construct: extracellular domain; also called FcγRIIa H type; 2aH
T5 sequence: T1 sequence with R134H

T6: FcγRIIb (human, UniProt P31994 43-217)
T6 construct: extracellular domain; also called 2b
T6 sequence: T3 sequence

B1: GpH7-A5/GpH7-B3 variant Q295_12R/GpL16-k0 (antibody, human IgG1, kappa)
heavy 1: not shown
heavy 2: not shown
light: DIVMTQSPLSLPVTPGEPASISCQASESLVHSNRNTYLHWYLQKPGQSPQLLIYKVSNRFSGVPDRFSGSGSGTDFTLKISRVEAEDVGVYYCSQNTHVPPTFGQGTKVEIERTVAAPSVFIFPPSDEQLKSGTASVVCLLNNFYPREAKVQWKVDNALQSGNSQESVTEQDSKDSTYSLSSTLTLSKADYEKHKVYACEVTHQGLSSPVTKSFNRGEC
notes: heterodimerized IgG1, one H chain mutated; also called He Ab; copies: 1 + 1 + 2
B2: GpH7-A5/GpH7-B3 variant P271_10E/GpL16-k0 (antibody, human IgG1, kappa)
heavy 1: not shown
heavy 2: not shown
light: B1 light
notes: as for B1
B3: GpH7-A5/GpH7-B3 variant P271_08L/GpL16-k0 (antibody, human IgG1, kappa)
heavy 1: not shown
heavy 2: not shown
light: B1 light
notes: as for B1
B4: GpH7-A5/GpH7-B3 variant Q295_02A/GpL16-k0 (antibody, human IgG1, kappa)
heavy 1: not shown
heavy 2: not shown
light: B1 light
notes: as for B1
B5: GpH7-A5/GpH7-B3 variant P271_01G/GpL16-k0 (antibody, human IgG1, kappa)
heavy 1: not shown
heavy 2: not shown
light: B1 light
notes: as for B1
B6: GpH7-A5/GpH7-B3 variant P271_02A/GpL16-k0 (antibody, human IgG1, kappa)
heavy 1: not shown
heavy 2: not shown
light: B1 light
notes: as for B1
B7: GpH7-A5/GpH7-B3 variant P271_07I/GpL16-k0 (antibody, human IgG1, kappa)
heavy 1: not shown
heavy 2: not shown
light: B1 light
notes: as for B1
B8: GpH7-A5/GpH7-B3 variant Q295_03V/GpL16-k0 (antibody, human IgG1, kappa)
heavy 1: not shown
heavy 2: not shown
light: B1 light
notes: as for B1
B9: GpH7-A5/GpH7-B3 variant P271_13S/GpL16-k0 (antibody, human IgG1, kappa)
heavy 1: not shown
heavy 2: not shown
light: B1 light
notes: as for B1
B10: GpH7-A5/GpH7-B3 variant P271_09D/GpL16-k0 (antibody, human IgG1, kappa)
heavy 1: not shown
heavy 2: not shown
light: B1 light
notes: as for B1
B11: GpH7-A5/GpH7-B3 variant P271_20W/GpL16-k0 (antibody, human IgG1, kappa)
heavy 1: not shown
heavy 2: not shown
light: B1 light
notes: as for B1
B12: GpH7-A5/GpH7-B3 variant P271_12R/GpL16-k0 (antibody, human IgG1, kappa)
heavy 1: not shown
heavy 2: not shown
light: B1 light
notes: as for B1
B13: GpH7-A5/GpH7-B3 variant P271_03V/GpL16-k0 (antibody, human IgG1, kappa)
heavy 1: not shown
heavy 2: not shown
light: B1 light
notes: as for B1
B14: GpH7-A5/GpH7-B3 variant Q295_04F/GpL16-k0 (antibody, human IgG1, kappa)
heavy 1: not shown
heavy 2: not shown
light: B1 light
notes: as for B1
B15: GpH7-A5/GpH7-B3 variant Q295_01G/GpL16-k0 (antibody, human IgG1, kappa)
heavy 1: not shown
heavy 2: not shown
light: B1 light
notes: as for B1
B16: GpH7-A5/GpH7-B3 variant P271_06M/GpL16-k0 (antibody, human IgG1, kappa)
heavy 1: not shown
heavy 2: not shown
light: B1 light
notes: as for B1
B17: GpH7-A5/GpH7-B3 variant P271_18N/GpL16-k0 (antibody, human IgG1, kappa)
heavy 1: not shown
heavy 2: not shown
light: B1 light
notes: as for B1
B18: GpH7-A5/GpH7-B3 variant P271_19Q/GpL16-k0 (antibody, human IgG1, kappa)
heavy 1: not shown
heavy 2: not shown
light: B1 light
notes: as for B1
B19: GpH7-A5/GpH7-B3 variant P271_11K/GpL16-k0 (antibody, human IgG1, kappa)
heavy 1: not shown
heavy 2: not shown
light: B1 light
notes: as for B1
B20: GpH7-A5/GpH7-B3 variant V266_02A/GpL16-k0 (antibody, human IgG1, kappa)
heavy 1: not shown
heavy 2: not shown
light: B1 light
notes: heterodimerized IgG1, one H chain mutated; also called He Ab
B21: GpH7-A5/GpH7-B3 variant V266_08L/GpL16-k0 (antibody, human IgG1, kappa)
heavy 1: not shown
heavy 2: not shown
light: B1 light
notes: as for B20
B22: GpH7-A5/GpH7-B3 variant V266_06M/GpL16-k0 (antibody, human IgG1, kappa)
heavy 1: not shown
heavy 2: not shown
light: B1 light
notes: as for B20
B23: GpH7-A5/GpH7-B3 variant V266_07I/GpL16-k0 (antibody, human IgG1, kappa)
heavy 1: not shown
heavy 2: not shown
light: B1 light
notes: as for B20

Residue numbers refer to the chain shown, from its start.

T7 sequence (P12314 other isoform, or with tags, fused parts or gaps): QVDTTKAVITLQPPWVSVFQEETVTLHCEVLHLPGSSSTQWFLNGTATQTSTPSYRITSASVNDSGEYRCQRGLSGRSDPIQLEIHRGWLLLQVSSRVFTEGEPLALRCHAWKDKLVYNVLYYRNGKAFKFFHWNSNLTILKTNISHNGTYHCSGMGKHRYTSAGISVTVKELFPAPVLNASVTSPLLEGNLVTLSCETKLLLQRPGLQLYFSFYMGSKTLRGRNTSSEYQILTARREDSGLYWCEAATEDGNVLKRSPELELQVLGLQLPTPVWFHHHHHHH

The first assay has as its target T7, FcγRIa extracellular domain, C-terminal His tag (human, UniProt P12314 16-292).
T7 construct: extracellular domain; also called 1a
Description: SPR; He Ab vs HeCon Ab (GpH7-A5/GpH7-B3/GpL16-k0)=100.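 Also: surface plasmon resonance at 25 °C with the test antibody captured on a sensor chip via antigenic peptide, protein L or protein A/G and FcγR flowed over as analyte.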 A general note: SPR reads the build-up and loss of mass on a sensor chip optically.
Description: (§1) The antibody of interest was analyzed for its interaction with FcγR using a BiaCore™ T100, BiaCore™ A100, or BiaCore™ 4000 surface plasmon resonance system (GE Healthcare Japan Corp.). The running buffer used was HBS-EP+ (GE Healthcare Japan Corp.). The assay temperature was set to 25° C. The sensor chips used were: a chip prepared by immobilizing antigenic peptides onto Series S Sensor Chip CM5 (GE Healthcare Japan Corp.) by the amine coupling method; a chip prepared by immobilizing antigenic peptides biotinylated in advance onto Series S Sensor Chip SA (certified) (GE Healthcare Japan Corp.) through their interaction; a chip prepared by immobilizing protein L (ACTIGEN, BioVision, Inc.) onto Series S Sensor Chip CM5 (GE Healthcare Japan Corp.); and a chip prepared by immobilizing protein A/G (Thermo Fisher Scientific K.K.) onto Series S Sensor Chip CM5 (GE Healthcare Japan Corp.). The antibody of interest was captured onto any of these chips and allowed to interact with FcγR diluted with a running buffer. The antibody captured on the chip was washed off through the reaction of 10 mM glycine-HCl (pH 1.5) to regenerate the chip, which was repetitively used.
For B1, the “He/Con 1a” value turned out to be 98.8%.
Same read-out and setting: next, B2: 101%; B3: 101%.
The same measure, in the same setting: next, B4: 103%; B5: 103%.
Consider B6, for which the “He/Con 1a” value turned out to be 102%.
Take B7: the “He/Con 1a” value came to 101%.
For the molecule B8, the “He/Con 1a” value worked out at 102%.
On the same count and under the same terms, next, B9: 101%.
The same measure, in the same setting: next, B10: 100%; B11: 101%.
As for B12, the “He/Con 1a” value was 101%.
On the same count and under the same terms, next, B13: 101%; B14: 101%.
Still for that read-out and setting: next, B15: 96.1%.
As for B16, the “He/Con 1a” value stood at 101%.
Regarding B17, the “He/Con 1a” value stood at 102%.
The same measure, in the same setting: next, B18: 102%; B19: 101%.

The next assay deals with T1, FcγRIIa(R) extracellular domain, …. The assay is described as above.
Description: as §1
As for B1, the “He/Con 2aR” value is 82.2%.
Take B2: the “He/Con 2aR” value was found to be 102%.
With B3, the “He/Con 2aR” value turned out to be 103%.
The same measure, in the same setting: next, B4: 91.5%; B5: 143%; B6: 93.9%.
The same measure, in the same setting: next, B7: 88%.
Same read-out and setting: next, B8: 90.3%.
With B9, the “He/Con 2aR” value is 93.5%.
On the same count and under the same terms, next, B10: 109%; B11: 76.6%; B12: 95.8%.
Same read-out and setting: next, B13: 85.8%; B14: 82.8%; B15: 60.3%.
The same measure, in the same setting: next, B16: 87.3%.
Take B17: the “He/Con 2aR” value was determined as 97.7%.
On the same count and under the same terms, next, B18: 95.1%.
The same measure, in the same setting: next, B19: 97.3%.

The next assay deals with T2, FcγRIIa(H) extracellular domain, …. The description is as above.
Description: as §1
Turning to B1, the “He/Con 2aH” value came out at 96.4%.
On the same count and under the same terms, next, B2: 72.4%; B3: 99.4%; B4: 101%.
On the same count and under the same terms, next, B5: 123%.
Still for that read-out and setting: next, B6: 88.4%; B7: 94.1%.
On to B8, for which the “He/Con 2aH” value was determined as 106%.
Take B9: the “He/Con 2aH” value was 83.3%.
On the same count and under the same terms, next, B10: 80.4%; B11: 88.7%; B12: 100%.
For B13, the “He/Con 2aH” value was determined as 85.4%.
On the same count and under the same terms, next, B14: 87.4%; B15: 62.5%.
On the same count and under the same terms, next, B16: 87.7%; B17: 94.5%; B18: 90.7%.
Same read-out and setting: next, B19: 100%.

For another assay, the target named is T3, FcγRIIb extracellular domain, …. The description is as above.
Description: as §1
For B1, the “He/Con 2b” value was 73.1%.
In the case of B2, the “He/Con 2b” value was 122%.
Still for that read-out and setting: next, B3: 115%; B4: 89.4%.
The same measure, in the same setting: next, B5: 217%; B6: 98.7%.
The same measure, in the same setting: next, B7: 86.1%; B8: 84.9%; B9: 98.2%.
For the molecule B10, the “He/Con 2b” value worked out at 135%.
On the same count and under the same terms, next, B11: 65.1%; B12: 96.9%.
On the same count and under the same terms, next, B13: 83.8%.
The same measure, in the same setting: next, B14: 72.6%; B15: 51.6%.
As for B16, the “He/Con 2b” value was found to be 87%.
Turning to B17, the “He/Con 2b” value was 105%.
Still for that read-out and setting: next, B18: 99.3%; B19: 101%.

For another assay, the target named is T8, FcγRIIIa extracellular domain, C-terminal His tag (human, UniProt P08637 17-208).
T8 construct: extracellular domain; also called 3a
T8 sequence (P08637 other isoform, or with tags, fused parts or gaps): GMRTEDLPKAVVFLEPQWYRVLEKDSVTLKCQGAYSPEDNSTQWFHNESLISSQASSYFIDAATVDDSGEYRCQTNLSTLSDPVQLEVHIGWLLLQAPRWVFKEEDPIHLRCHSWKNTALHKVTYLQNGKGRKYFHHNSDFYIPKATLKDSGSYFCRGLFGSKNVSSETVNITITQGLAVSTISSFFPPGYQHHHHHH
The assay is described as above.
Description: as §1
As to B1, the “He/Con 3a” value amounted to 73.2%.
Still for that read-out and setting: next, B2: 98.2%; B3: 74.5%.
On to B4, for which the “He/Con 3a” value worked out at 111%.
Still for that read-out and setting: next, B5: 119%; B6: 83.7%; B7: 80.2%.
On the same count and under the same terms, next, B8: 86.2%; B9: 79.8%.
On the same count and under the same terms, next, B10: 97.7%.
As for B11, the “He/Con 3a” value was 77.8%.
Still for that read-out and setting: next, B12: 87.6%; B13: 73.5%; B14: 75.1%.
As to B15, the “He/Con 3a” value is 76.6%.
Still for that read-out and setting: next, B16: 74%.
The same measure, in the same setting: next, B17: 94%; B18: 84.6%; B19: 92.5%.

In a further assay the target is T9, FcγRIa (human, UniProt P12314 16-292).
T9 construct: extracellular domain; also called 1a
T9 sequence (P12314 other isoform, or with tags, fused parts or gaps): as the sequence (P12314 other isoform, or with tags, fused parts or gaps) above
Kind of assay: SPR (Biacore), binding relative to GpH7-A5/GpH7-B3/GpL16-k0 x100.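 Also: surface plasmon resonance at 25 °C, antibody captured on a sensor chip and soluble FcγR flowed over it in HBS-EP+ running buffer.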
As to B20, the “He/Con 1a” value came out at 93.8%.
Same read-out and setting: next, B21: 94.9%; B22: 96.5%; B23: 96.1%.

The target of the next assay is T4, FcγRIIa(R). The assay is described as above.
Consider B20, for which the “He/Con 2aR” value stood at 88.8%.
On to B21, for which the “He/Con 2aR” value came out at 152%.
Turning to B22, the “He/Con 2aR” value turned out to be 161%.
Same read-out and setting: next, B23: 129%.

In another assay the target is T5, FcγRIIa(H). The description is as above.
Regarding B20, the “He/Con 2aH” value was 69.7%.
On the same count and under the same terms, next, B21: 106%; B22: 84.8%; B23: 107%.

For another assay, the target named is T6, FcγRIIb. The assay is described as above.
B20: the “He/Con 2b” value was found to be 85.1%.
Same read-out and setting: next, B21: 248%; B22: 264%; B23: 160%.

Source of the values: patent US20260167699A1 (Chugai, published 2026).
